The text below walks through data of article PMC10716122.

The target of assay [1] is LINE-1 (L1) ORF1p (human) (UniProt Q9UN81). In words: not stated; formation of the ORF1p trimer with or without cGAS, Supplementary Fig. 2o; method not given.
In assay [2] the target is TRIM41 (UniProt Q8WV44). In words: co-immunoprecipitation. Particulars: reference: wild-type cGAS.

As usually defined, the stoichiometry N is the number of molecules, sites or subunits per partner or assembly. With “LINE-1 (L1) ORF1p (from UniProt Q9UN81 1-338) (natural protein)”, in assay [1], the stoichiometry N stood at 3. As for cGAS (from UniProt Q8N884) S120A, the “binding against the reference” value in assay [2] (sites S120) is listed as “weaker”. Regarding cGAS (from UniProt Q8N884) S305A, the “binding against the reference” value in assay [2] (sites S305) was “weaker”.
